Measured values: paper PMC4303762, “Identification of PLXDC1 and PLXDC2 as the transmembrane receptors for the multifunctional factor PEDF” (eLife, 2014)

Target: the molecule itself
Experiment: cross-linking; membranes of HEK293 cells transfected with the receptor, in PBS; disulfide bond formation catalysed by 0.5 mM Cu (II) phenanthroline, 5 min; non-reducing and reducing SDS-PAGE, Western blot for the receptor

B1: PLXDC1 in membranes of transfected HEK293 cells (copper phenanthroline crosslinking) (receptor, human, UniProt Q8IUK5 19-500, looked up)
chain: LSPQPGAGHDEGPGSGWAAKGTVRGWNRRARESPGHVSEPDRTQLSQDLGGGTLAMDTLPDNRTRVVEDNHSYYVSRLYGPSEPHSRELWVDVAEANRSQVKIHTILSNTHRQASRVVLSFDFPFYGHPLRQITIATGGFIFMGDVIHRMLTATQYVAPLMANFNPGYSDNSTVVYFDNGTVFVVQWDHVYLQGWEDKGSFTFQAALHHDGRIVFAYKEIPMSVPEISSSQHPVKTGLSDAFMILNPSPDVPESRRRSIFEYHRIELDPSKVTSMSAVEFTPLPTCLQHRSCDACMSSDLTFNCSWCHVLQRCSSGFDRYRQEWMDYGCAQEAEGRMCEDFQDEDHDSASPDTSFSPYDGDLTTTSSSLFIDSLTTEDDTKLNPYAGGDGLQNNLSPKTKGTPVHLGTIVGIVLAVLLVAAIILAGIYINGHPTSNAALFFIERRPHHWPAMKFRSHPDHSTYAEVEPSGHEKEGFMEAEQC
notes: human PLXDC1 with its cytoplasmic tail ending in the conserved cysteine; Detected by a Western blot for the receptor; also called the receptor; source: HEK293, transfected, in membrane preparation
- stoichiometry N: 2
